# Measured values from publication PMC5693923 (2017).
# B1: Tenascin-W FBG domain (FBG-W) 1060-1300 (protein)
# chain: VGARFPHPSDCSQVQQNSNAASGLYTIYLHGDASRPLQVYCDMETDGGGWIVFQRRNTGQLDFFKRWRSYVEGFGDPMKEFWLGLDKLHNLTTGTPARYEVRVDLQTANESAYAIYDFFQVASSKERYKLTVGKYRGTAGDALTYHNGWKFTTFDRDNDIALSNCALTHHGGWWYKNCHLANPNGRYGETKHSEGVNWEPWKGHEFSIPYVELKIRPHGYSREPVLGRKKRTLRGRLRTF
# B2: Tenascin-R FBG domain (FBG-R) 1128-1359 (protein)
# chain: GGRVFPHPQDCAQHLMNGDTLSGVYPIFLNGELSQKLQVYCDMTTDGGGWIVFQRRQNGQTDFFRKWADYRVGFGNVEDEFWLGLDNIHRITSQGRYELRVDMRDGQEAAFASYDRFSVEDSRNLYKLRIGSYNGTAGDSLSYHQGRPFSTEDRDNDVAVTNCAMSYKGAWWYKNCHRTNLNGKYGESRHSQGINWYHWKGHEFSIPFVEMKMRPYNHRLMAGRKRQSLQF
# Molecular target: TLR4 extracellular domain 24-631 (Homo sapiens, UniProt O00206)
# Sequence (O00206 24-631): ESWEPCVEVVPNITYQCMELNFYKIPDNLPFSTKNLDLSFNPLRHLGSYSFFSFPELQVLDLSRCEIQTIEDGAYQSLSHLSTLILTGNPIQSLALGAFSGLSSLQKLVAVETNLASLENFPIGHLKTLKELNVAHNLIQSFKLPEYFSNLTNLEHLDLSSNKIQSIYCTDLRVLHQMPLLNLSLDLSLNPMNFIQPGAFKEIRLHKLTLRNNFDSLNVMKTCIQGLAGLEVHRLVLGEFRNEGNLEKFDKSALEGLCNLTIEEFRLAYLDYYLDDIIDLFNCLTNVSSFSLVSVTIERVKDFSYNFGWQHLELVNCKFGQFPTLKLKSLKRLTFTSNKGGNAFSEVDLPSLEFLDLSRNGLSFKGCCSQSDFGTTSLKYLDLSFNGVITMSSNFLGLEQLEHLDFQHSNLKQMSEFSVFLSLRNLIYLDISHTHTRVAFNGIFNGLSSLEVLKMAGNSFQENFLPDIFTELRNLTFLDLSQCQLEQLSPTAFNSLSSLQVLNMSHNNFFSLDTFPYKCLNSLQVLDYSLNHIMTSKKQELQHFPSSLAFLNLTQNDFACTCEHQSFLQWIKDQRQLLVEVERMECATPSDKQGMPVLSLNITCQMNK
# Test: solid phase binding assay
row,Binder,Kd
1,B1,~0.055 µM
2,B2,~0.055 µM
